Data on two molecules can be found in US20260217849A1 (SHANGHAI HUAOTA BIOPHARMACEUTICAL, published 2026).

For test [1], the target named is T1, human CD73 antigen protein (ACRO Biosystems, Catalog No. CD3-H52H7) (human, UniProt P21589 27-547).
T1 construct: Bought protein; also called Human CD73 dimer protein; human CD73 protein
T1 sequence (looked up): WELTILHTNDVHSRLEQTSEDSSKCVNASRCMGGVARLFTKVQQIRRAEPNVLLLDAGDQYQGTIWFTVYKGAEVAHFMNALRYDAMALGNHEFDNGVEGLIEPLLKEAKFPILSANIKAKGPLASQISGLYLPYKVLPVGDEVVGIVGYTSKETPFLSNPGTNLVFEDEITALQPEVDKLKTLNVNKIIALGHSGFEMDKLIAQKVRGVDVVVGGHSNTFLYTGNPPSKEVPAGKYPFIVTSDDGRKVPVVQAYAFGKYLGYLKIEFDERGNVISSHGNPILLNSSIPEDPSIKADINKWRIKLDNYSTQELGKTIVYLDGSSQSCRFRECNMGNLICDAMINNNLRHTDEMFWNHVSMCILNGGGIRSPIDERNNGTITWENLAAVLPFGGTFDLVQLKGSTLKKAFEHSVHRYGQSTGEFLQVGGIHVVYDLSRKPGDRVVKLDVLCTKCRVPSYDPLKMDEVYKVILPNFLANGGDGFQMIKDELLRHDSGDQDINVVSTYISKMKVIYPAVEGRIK
Kind of test: SPR BIAcore 8k, CD73 captured as ligand, analyte 1 buffer, analyte 2 900725. An excerpt: (§1) First, the human CD73 antigen protein (manufacturer: ACRO Biosystems, Catalog No. CD3-H52H7) was captured as a ligand using BIAcore 8k, and then the antibodies were used as analytes.
A general note: SPR reads the build-up and loss of mass on a sensor chip optically.

Test [2] deals with T1, human CD73 antigen protein (ACRO …). As to the kind of experiment: SPR BIAcore 8k, CD73 captured as ligand, 900698 added first (competitor), then 900725.
Source text: as §1

Test [3] has the same target. As to the kind of experiment: SPR BIAcore 8k, CD73 captured as ligand, analyte 1 buffer, analyte 2 900698.
Source text: as §1

Test [4] shares this target. As to the kind of experiment: SPR BIAcore 8k, CD73 captured as ligand, 900725 added first (competitor), then 900698.
Source text: as §1

B1: 900725 (antibody, human IgG1, kappa, L234A L235A, V domains shown)
VH: QVQLVQSGAEVKKPGASVKLSCKASGYTFTSYWIHWVRQAPGQGLEWIGMIHPNSGSTYYNEKFKGRATLTVDKSTSTAYMELSSLRSEDTAVYYCARYYGSDYEWYFDVWGQGTTVTVSS
VL: DIQMTQSPSSMSASVGDRVTITCKASQNVRTAVVWYQQKPGKAPKALIYLASNRHTGVPDRFSGSGSGTDFTLTISSLQPEDFATYFCLQHWNYPYTFGQGTKLEIKR
notes: also called component of the anti-CD73 cocktail antibody
By Kd is commonly meant the concentration at which binding is half-saturated. Low readings indicate tighter binding, high ones weaker binding. Broadly, the koff is the rate constant with which the complex falls apart. High values mean a short-lived complex, low ones a long-lived complex. Broadly, the kon is the second-order rate constant of association. Lower therefore signals slower complex formation. B1: in test [1], binding was characterised by a dissociation constant (Kd) of 3.01 nM, the off-rate (koff) came to 0.00452 s⁻¹ and the kon was 1.5e+06 M⁻¹ s⁻¹. In test [2], the Kd came out at 4.16 nM, the koff stood at 0.00591 s⁻¹ and the association rate constant (kon) is 1.42e+06 M⁻¹ s⁻¹.

B2: 900698 (antibody, human IgG1, kappa, L234A L235A, V domains shown)
VH: QVQLVESGGGLVKPGGSLRLSCAASGFTFSKYAMSWIRQAPGKGLEWVAEISSGGGYINYADSVKGRFTISRDNAKNSLYLQMNSLRAEDTAVYYCARAIYYYGSSYNYYAMDYWGQGTTVTVSS
VL: DIQMTQSPSSLSASVGDRVTITCRASQDVGTAEAWYQQKPGKAPKLLIYWASTRHTGVPSRFSGSGSGTDFTLTISSLQPEDFATYYCQQYSSYPLTFGQGTKLEIKR
notes: as for B1
As to B2, in test [3], the Kd amounted to 7.3 nM, the koff came out at 0.00114 s⁻¹ and the on-rate (kon) stood at 156000 M⁻¹ s⁻¹. In test [4], this molecule registered a Kd of 12.6 nM, a koff of 0.0017 s⁻¹ and a kon of 135000 M⁻¹ s⁻¹.
